# Source: patent US20210130436A1 (published 2021)
# Changes are numbered by the printed parent chain. Names and notes keep the numbering of the source.
# B1: CD80 WT IgV-Fc (Fc fusion, not shown: a dimerising Fc or GST)
# chain: VIHVTKEVKEVATLSCGHNVSVEELAQTRIYWQKEKKMVLTMMSGDMNIWPEYKNRTIFDITNNLSIVILALRPSDEGTYECVVLKYEKDAFKREHLAEVTLSVKAD
# notes: also called WT CD80 IgV-Fc; wild-type CD80 IgV-Fc
# B2: variant CD80 IgV-Fc Q33L/E35D/M47I/L85Q (Fc fusion, not shown: a dimerising Fc or GST)
# chain: B1 chain with Q33L, E35D, M47I, L85Q
# B3: variant CD80 IgV-Fc Q33L/E35D/M47I/T62N/L85Q (Fc fusion, not shown: a dimerising Fc or GST)
# chain: B1 chain with Q33L, E35D, M47I, T62N, L85Q
# B4: variant CD80 IgV-Fc Q27H/E35D/M47I (Fc fusion, not shown: a dimerising Fc or GST)
# chain: B1 chain with Q27H, E35D, M47I
# B5: variant CD80 IgV-Fc E35D/M43I/D46E/A71G/L85M (Fc fusion, not shown: a dimerising Fc or GST)
# chain: B1 chain with E35D, M43I, D46E, A71G, L85M
# B6: variant CD80 IgV-Fc E35D/M47I/V68M/Y87N (Fc fusion, not shown: small tags and cut ends; a dimerising Fc or GST)
# chain: B1 chain with E35D, M47I, V68M, Y87N
# B7: variant CD80 IgV-Fc E35D/M47L/A71G/L85M (Fc fusion, not shown: a dimerising Fc or GST)
# chain: B1 chain with E35D, M47L, A71G, L85M
# B8: variant CD80 IgV-Fc E35D/D46E/M47L/V68M/A71G/Y87C/K93R (Fc fusion, not shown: small tags and cut ends; a dimerising Fc or GST)
# chain: B1 chain with E35D, D46E, M47L, V68M, A71G, Y87C, K93R
# B9: variant CD80 IgV-Fc Y31S/E35D/M47L/T79L/E88G (Fc fusion, not shown: a dimerising Fc or GST)
# chain: B1 chain with Y31S, E35D, M47L, T79L, E88G
# B10: variant CD80 IgV-Fc E35D/D46E/L85M (Fc fusion, not shown: a dimerising Fc or GST)
# chain: B1 chain with E35D, D46E, L85M
# B11: variant CD80 IgV-Fc H18Y/E35D/M47L/A71G/A91S (Fc fusion, not shown: a dimerising Fc or GST)
# chain: B1 chain with H18Y, E35D, M47L, A71G, A91S
# B12: variant CD80 IgV-Fc E35D/D46E/A91G (Fc fusion, not shown: a dimerising Fc or GST)
# chain: B1 chain with E35D, D46E, A91G
# B13: variant CD80 IgV-Fc D46V/M47I/A71G (Fc fusion, not shown: a dimerising Fc or GST)
# chain: B1 chain with D46V, M47I, A71G
# B14: variant CD80 IgV-Fc V22A/E23D/Q33L/E35D/M47V (Fc fusion, not shown: a dimerising Fc or GST)
# chain: B1 chain with V22A, E23D, Q33L, E35D, M47V
# B15: variant CD80 IgV-Fc E35D/M47V (Fc fusion, not shown: a dimerising Fc or GST)
# chain: B1 chain with E35D, M47V
# B16: variant CD80 IgV-Fc E35D/T41S/N48I (Fc fusion, not shown: a dimerising Fc or GST)
# chain: B1 chain with E35D, T41S, N48T
# notes: also called E35D/T41S/N48T
# B17: variant CD80 IgV-Fc M43I/M47L/A71G (Fc fusion, not shown: a dimerising Fc or GST)
# chain: B1 chain with M43I, M47L, A71G
# B18: variant CD80 IgV-Fc Q27L/E35D/M47V/I61V/L85M (Fc fusion, not shown: a dimerising Fc or GST)
# chain: B1 chain with Q27L, E35D, M47V, I61V, L85M
# B19: variant CD80 IgV-Fc M47I/A71G (Fc fusion, not shown: a dimerising Fc or GST)
# chain: B1 chain with M47I, A71G
# B20: variant CD80 IgV-Fc E35D/M47I/N48K/I61F (Fc fusion, not shown: a dimerising Fc or GST)
# chain: B1 chain with E35D, M47I, N48K, I61F
# B21: variant CD80 IgV-Fc E35D/D46E (Fc fusion, not shown: a dimerising Fc or GST)
# chain: B1 chain with E35D, D46E
# B22: variant CD80 IgV-Fc H18Y/E35D (Fc fusion, not shown: a dimerising Fc or GST)
# chain: B1 chain with H18Y, E35D
# B23: variant CD80 IgV-Fc E35D/D46E/M47I (Fc fusion, not shown: a dimerising Fc or GST)
# chain: B1 chain with E35D, D46E, M47I
# Columns and labels:
# [1] = molecular target: T1, CD28 on Jurkat/IL2 reporter cells (human, UniProt P10747 19-220); assay: flow cytometry, Jurkat cells (CD28); MFI relative to WT CD80
# T1 construct: whole, on cells; Endogenous CD28 of Jurkat cells; also called Jurkats (CD28)
# human CTLA4 on CHO cells [2] = molecular target: T2, human CTLA4 on CHO cells (human, UniProt P16410 36-223); assay: flow cytometry, CHO/CTLA4 cells; MFI relative to WT CD80
# T2 construct: whole, on cells; CHO cells stably expressing CTLA4; also called huCTLA4
# T2 sequence (P16410 36-223): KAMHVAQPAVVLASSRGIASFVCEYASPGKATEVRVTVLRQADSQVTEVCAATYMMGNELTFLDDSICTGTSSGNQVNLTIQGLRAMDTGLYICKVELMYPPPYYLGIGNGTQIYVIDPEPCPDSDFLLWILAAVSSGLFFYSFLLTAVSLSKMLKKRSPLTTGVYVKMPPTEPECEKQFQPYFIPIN
# human PD-L1 on CHO cells [3] = molecular target: T3, human PD-L1 on CHO cells (human, UniProt Q9NZQ7 19-290); assay: flow cytometry, CHO cells stably expressing PD-L1
# T3 construct: whole, on cells; CHO cells stably expressing PD-L1; also called huPD-L1
# T3 sequence (Q9NZQ7 19-290): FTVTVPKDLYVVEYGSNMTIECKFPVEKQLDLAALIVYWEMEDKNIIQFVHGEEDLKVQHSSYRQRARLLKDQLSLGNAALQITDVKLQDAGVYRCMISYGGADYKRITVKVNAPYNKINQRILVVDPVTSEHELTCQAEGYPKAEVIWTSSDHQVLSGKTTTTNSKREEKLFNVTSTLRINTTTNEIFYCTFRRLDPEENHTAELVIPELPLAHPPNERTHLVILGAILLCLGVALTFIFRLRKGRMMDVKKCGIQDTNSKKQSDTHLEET
# human CTLA4 on CHO cells [4] = molecular target: T2, human CTLA4 on CHO cells; assay: flow cytometry, CHO cells stably expressing CTLA4
# [5] = molecular target: T1, CD28 on Jurkat/IL2 reporter cells; assay: flow cytometry, Jurkat cells (CD28)
# human PD-L1 on CHO cells [6] = molecular target: T3, human PD-L1 on CHO cells; assay: flow cytometry, CHO/PD-L1 cells; MFI relative to WT CD80
# human PD-L1 on CHO cells [7] = molecular target: T3, human PD-L1 on CHO cells; assay: flow cytometry; PD-L1 MFI over CD28 MFI
# [8] = molecular target: T4, human PD-L1 (full-length, expressed on CHO cells) (human, UniProt Q9NZQ7 19-290); assay: flow cytometry MFI at 33.3 nM relative to WT CD80 ECD-Fc (R&D), CHO/huPD-L1 cells
# T4 construct: also called huPD-L1; CD274
# T4 sequence (Q9NZQ7 19-290): as above
# [9] = molecular target: T4, human PD-L1 (full-length, expressed on …); assay: flow cytometry, MFI on CHO/huPD-L1 cells over MFI on Jurkat (CD28) cells, 33.3 nM
# [10] = molecular target: T5, human CTLA4 (full-length, expressed on CHO cells) (human, UniProt P16410 36-223); assay: flow cytometry MFI at 33.3 nM relative to WT CD80 ECD-Fc (R&D), CHO/huCTLA4 cells
# T5 construct: also called huCTLA4
# T5 sequence (P16410 36-223): as the sequence (P16410 36-223) above
# [11] = molecular target: T6, CD28 (endogenously expressed on Jurkat/IL2 reporter cells) (human, UniProt P10747 19-220); assay: flow cytometry MFI at 33.3 nM relative to WT CD80 ECD-Fc (R&D), Jurkat cells
# T6 construct: Endogenous CD28 of Jurkat cells; also called human CD28
# [12] = molecular target: T5, human CTLA4 (full-length, expressed on …); assay: flow cytometry, CHO cells expressing huCTLA4, PE anti-human Fc
# [13] = molecular target: T4, human PD-L1 (full-length, expressed on …); assay: flow cytometry, CHO cells expressing huPD-L1, PE anti-human Fc
# [14] = molecular target: T6, CD28 (endogenously expressed on …); assay: flow cytometry, Jurkat/IL2 reporter cells (endogenous CD28), PE anti-human Fc
# [15] = molecular target: T7, human PD-L1 (huPD-L1), full-length, stably expressed on CHO cells (human, UniProt Q9NZQ7 19-290); assay: flow cytometry, CHO cells expressing huPD-L1
# T7 construct: whole, on cells
# T7 sequence (Q9NZQ7 19-290): as the sequence (Q9NZQ7 19-290) above
Binder,Fold change to WT CD80 [1],Fold change to WT CD80 (human CTLA4 on CHO cells [2]),MFI at 33.3 nM (human PD-L1 on CHO cells [3]),MFI at 33.3 nM (human CTLA4 on CHO cells [4]),MFI at 33.3 nM [5],Fold change to WT CD80 (human PD-L1 on CHO cells [6]),Ratio of PDL1:CD28 (human PD-L1 on CHO cells [7]),Fold change to WT [8],Ratio of PDL1:CD28 [9],Fold change to WT CD80 [10],Fold change to WT [11],MFI at 33.3 nM [12],MFI at 33.3 nM [13],MFI at 33.3 nM [14],MFI at 33.3 nM [15]
B1,1 fold,1 fold,70.3 MFI,1920 MFI,66 MFI,1 fold,1 ratio,–,–,–,–,–,–,–,–
B2,–,–,–,–,–,–,–,8.05 fold,222 ratio,0.11 fold,0.04 fold,20500 MFI,63900 MFI,287 MFI,–
B3,–,–,–,–,–,–,–,9.14 fold,256 ratio,0.01 fold,0.04 fold,1660 MFI,72600 MFI,284 MFI,–
B4,11.5 fold,14.4 fold,3420 MFI,27500 MFI,756 MFI,48.7 fold,5 ratio,–,–,–,–,–,–,–,–
B5,3 fold,14 fold,7140 MFI,26900 MFI,200 MFI,102 fold,36 ratio,–,–,–,–,–,–,–,–
B6,–,–,–,–,–,–,–,–,–,–,–,–,–,–,13100 MFI
B7,3 fold,8.7 fold,8310 MFI,16600 MFI,199 MFI,118 fold,42 ratio,–,–,–,–,–,–,–,–
B8,–,–,–,–,–,–,–,–,–,–,–,–,–,–,24300 MFI
B9,–,–,–,–,–,–,–,4.9 fold,140 ratio,0.01 fold,0.04 fold,1100 MFI,38900 MFI,278 MFI,–
B10,2.5 fold,15.8 fold,2880 MFI,30300 MFI,164 MFI,41 fold,18 ratio,–,–,–,–,–,–,–,–
B11,8 fold,12.6 fold,7580 MFI,24200 MFI,528 MFI,108 fold,14 ratio,–,–,–,–,–,–,–,–
B12,52.3 fold,16.8 fold,2820 MFI,32200 MFI,3450 MFI,40.1 fold,1 ratio,–,–,–,–,–,–,–,–
B13,20.1 fold,14.8 fold,7330 MFI,28400 MFI,1320 MFI,104 fold,6 ratio,–,–,–,–,–,–,–,–
B14,–,–,–,–,–,–,–,9.51 fold,275 ratio,0.02 fold,0.04 fold,3640 MFI,75500 MFI,274 MFI,–
B15,7 fold,10.9 fold,2940 MFI,20900 MFI,461 MFI,41.7 fold,6 ratio,–,–,–,–,–,–,–,–
B16,1.1 fold,15.8 fold,2190 MFI,30300 MFI,72.4 MFI,31.2 fold,30 ratio,–,–,–,–,–,–,–,–
B17,15.2 fold,12.2 fold,7760 MFI,23300 MFI,1000 MFI,110 fold,8 ratio,–,–,–,–,–,–,–,–
B18,3.5 fold,14.6 fold,2700 MFI,27900 MFI,230 MFI,38.5 fold,12 ratio,–,–,–,–,–,–,–,–
B19,12.5 fold,14.5 fold,5100 MFI,27800 MFI,823 MFI,72.5 fold,6 ratio,–,–,–,–,–,–,–,–
B20,12.4 fold,13.5 fold,5630 MFI,25900 MFI,816 MFI,80 fold,7 ratio,–,–,–,–,–,–,–,–
B21,11.8 fold,14.6 fold,3760 MFI,27900 MFI,779 MFI,53.4 fold,5 ratio,–,–,–,–,–,–,–,–
B22,7.3 fold,13.7 fold,3530 MFI,26300 MFI,479 MFI,50.2 fold,7 ratio,–,–,–,–,–,–,–,–
B23,15.2 fold,11.2 fold,3790 MFI,21400 MFI,1000 MFI,53.9 fold,4 ratio,–,–,–,–,–,–,–,–
